Measured values as given in patent publication US11732043 (MERUS N V, dated 2023).
Residue numbers refer to the chain shown, from its start.

B1: MG7133 (monovalent) (bispecific antibody, V domains shown)
VH 1: EVQLVQSGAEVKKPGSSVKVSCKASGGTFSSHAISWVRQVPGQGLEWMGGIIPLFDTAKNAQKFQGRVTITADKSTSTAYMELSSLRSEDTAVYYCARDRETGTLYYFDYWGQGTLVTVSS
VH 2: not shown
VL: not shown
B2: MG7139 (monovalent) (bispecific antibody, V domains shown)
VH 1: QVQLVQSGAEVKKPGSSVKVSCKASGGTFSNFAFSWVRQAPGQGLEWMGGIIPMFDTAKYAQKFQGRVTIIADKSTNTAYMDLNSLRSEDTAVYYCVRDRAIGTLYYFDYWGQGTLVTVSS
VH 2: not shown
VL: not shown
B3: MG7144 (monovalent) (bispecific antibody, V domains shown)
VH 1: QVQLVQSGAEVRKPGSSVMVSCKASGGTFSTYAINWLRQAPGQGLEWMGGIIPIFGTPYYGQRFQGRVTITADKSTNTVFMELSSLRSEDTAIYYCARDRDSGGLYYFDSWGQGTLVTVSS
VH 2: not shown
VL: not shown
B4: MG7106 (monovalent) (bispecific antibody)
VH 1: QVQLVQSGAEVKKPGSSVKVSCKASGGTFSKYVVSWVRQAPGQGFDWMGGIIPMFGTANYAQMFQGRVTITADKSTSTVNMELSSLRSEDTAVYYCVRDKAVAGLYYFDSWGQGTLVTVSS
VH 2: not shown
light: not shown
B5: MG7137 (monovalent) (bispecific antibody)
VH 1: QVQLVQSGAEVKRPGASVKVSCKVSGYTLTELSMHWVRQAPGKGLEWMGGSDPEHGETVDAQKFQGRVTMTEDTSTDTAYMELSSLRSEDTAVYYCTTGGTYYYGSGSYYTLDFWGQGTLVTVSS
VH 2: not shown
light: not shown
B6: MG7185 (monovalent) (bispecific antibody, V domains shown)
VH 1: QVQLVQSGAEVKKPGSSVKVSCKTSGGTFSNYAFSWVRQAPGQGLEWMGGIIPIFGSTNYAQSFQGRVTITADKSTSTAYMELSSLRSEDTAVYYCARDREMGTLYFFDQWGQGTTVTVSS
VH 2: not shown
VL: not shown
B7: MG7524 (monovalent) (bispecific antibody, V domains shown)
VH 1: QVQLVQSGAEVKKPGASVKVSCKASGYTFTSYGISWVRQAPGQGLEWMGWISAYSGNTNYAQKLQGRVTMTTDTSTSTAYMELRSLRSDDTAVYYCARGSILAAQMWGDIWGQGTLVTVSS
VH 2: not shown
VL: not shown
B8: bivalent LAG-3 IgG with MF7146 variable domains (antibody, V domains shown)
VH: EVQLVQSGAEVKKPGSSVKVSCKASGGTFNNYFITWVRQAPGQGLEWMGGIIPSFGTGNYAQKFQGRVAITADKSTNTAYMELSSLRSEDTAIYYCVRDREVGAIYYFDYWGQGTMVTVSS
VL: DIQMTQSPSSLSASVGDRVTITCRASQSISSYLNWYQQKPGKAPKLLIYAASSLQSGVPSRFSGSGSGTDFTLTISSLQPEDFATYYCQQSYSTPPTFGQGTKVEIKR
notes: Bivalent monospecific IgG; copies: 2 + 2
B9: bivalent LAG-3 IgG with MF7165 variable domains (antibody, V domains shown)
VH: QVQLVQSGAEVRKPGASVKVSCKVSGYTLTELSIHWVRQAPGKGLEWMGAFDPEDGETIYAQKFQGRVTMTEDTSTDTAYMELSSLRSEDTAVYFCATGGTYYYGSGSYYTLDYWGQGTLVTVSS
VL: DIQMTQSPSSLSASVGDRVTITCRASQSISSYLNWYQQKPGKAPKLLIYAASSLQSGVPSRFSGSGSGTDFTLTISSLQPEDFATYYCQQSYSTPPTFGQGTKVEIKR
notes: as for B8
B10: bivalent LAG-3 IgG with MF7515 variable domains (antibody, V domains shown)
VH: QVQLVQSGAEVKKPGASVKVSCKASGYTFTSYGISWVRQAPGQGLEWMGWISAYSGNTNYAQKLQGRVTMTTDTSTSTAYMELRSLRSDDTAVYYCARRPGPALGDLDSWGQGTLVTVSS
VL: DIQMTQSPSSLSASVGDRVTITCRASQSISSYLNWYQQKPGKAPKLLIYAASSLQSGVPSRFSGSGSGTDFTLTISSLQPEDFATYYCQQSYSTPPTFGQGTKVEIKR
notes: as for B8
B11: H4sH15482P* (antibody, V domains shown)
VH: QVQLVESGGGVVQPGRSLRLSCVASGFTFSSYGMHWVRQAPGKGLEWVAIIWYDGSNKYYADSVKGRFTISRDNSKNTQYLQMNSLRAEDTAVYYCASVATSGDFDYYGMDVWGQGTTVTVSS
VL: EIVLTQSPATLSLSPGERTTLSCRASQRISTYLAWYQQKPGQAPRLLIYDASKRATGIPARFSGSGSGTGFTLTISSLEPEDFAVYYCQQRSNWPLTFGGGTKVEIKR
B12: bivalent LAG-3 IgG with MF7134 variable domains (antibody, V domains shown)
VH: EVQLVQSGSELKKPGASVKVSCKASGYTFTTNALNWVRQAPGQGLEWMGWINTHTGNPTYAQGFIGRFVFSLDTSVSTAYLQIRSLKAEDTAVYYCAREPNWGVYFDYWGQGTLVTVSS
VL: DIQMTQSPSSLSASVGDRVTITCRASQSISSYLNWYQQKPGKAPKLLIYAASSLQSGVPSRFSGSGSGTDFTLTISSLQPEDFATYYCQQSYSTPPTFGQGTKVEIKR
B13: bivalent LAG-3 IgG with MF7518 variable domains (antibody, V domains shown)
VH: QVQLVQSGAEVKKPGASVKVSCKASGYTFTSYGISWVRQAPGQGLEWMGWISAYSGNTNYAQKLQGRVTMTTDTSTSTAYMELRSLRSDDTAVYYCARDGSGWDDFDYWGQGTLVTVSS
VL: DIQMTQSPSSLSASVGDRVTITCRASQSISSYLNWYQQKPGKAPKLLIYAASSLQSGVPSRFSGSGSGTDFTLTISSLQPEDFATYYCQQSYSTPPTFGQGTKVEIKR
B14: PG7116, bivalent LAG-3 IgG with two MF7116 variable domains (antibody, V domains shown)
VH: EVQLVESGGGVVQPGRSLRLSCAASGFTFSSYGMHWVRQAPGKGLEWVAVISYHGSDKYYADSVKGRFTISRDNSKNTLYLQMNSLRAEDTAVYYCARDGDNWDVFDIWGQGTLVTVSS
VL: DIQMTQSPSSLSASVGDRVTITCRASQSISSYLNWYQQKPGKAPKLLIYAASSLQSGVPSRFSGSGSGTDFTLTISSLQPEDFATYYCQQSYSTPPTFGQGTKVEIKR
notes: Bivalent monospecific IgG
B15: bivalent LAG-3 IgG with MF7106 variable domains (antibody, V domains shown)
VH: B4 VH 1
VL: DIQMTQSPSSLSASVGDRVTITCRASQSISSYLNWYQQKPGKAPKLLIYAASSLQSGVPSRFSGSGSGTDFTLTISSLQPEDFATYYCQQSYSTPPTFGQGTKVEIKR
B16: bivalent LAG-3 IgG with MF7100 variable domains (antibody, V domains shown)
VH: EVQLVESGGGVVQPGRSLRLSCAASGFTFSSYDTHWVRQAPGKGLEWVAVISYDGSNKYYADSVKGRFTISRDNSKNTLYLQMNSLRAEDTAMYYCARERGWDVFDIWGQGTLVTVSS
VL: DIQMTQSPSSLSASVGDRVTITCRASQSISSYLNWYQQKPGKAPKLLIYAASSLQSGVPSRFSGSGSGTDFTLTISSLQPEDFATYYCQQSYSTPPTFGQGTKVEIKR
B17: bivalent LAG-3 IgG with MF7137 variable domains (antibody, V domains shown)
VH: B5 VH 1
VL: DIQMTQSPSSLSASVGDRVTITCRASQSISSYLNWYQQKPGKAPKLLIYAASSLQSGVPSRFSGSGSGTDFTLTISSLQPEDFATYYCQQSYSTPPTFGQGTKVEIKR
B18: bivalent LAG-3 IgG with MF7118 variable domains (antibody, V domains shown)
VH: EVQLVESGGGLVQPGGSLRLSCAASGFTFSSYAMSWVRQAPGKGLEWVSSISGGGVSTFYADSVKGRFTISRDNSKNTLYLQMNSLRAEDTAVYYCAIVPAAATPSGTYYWIFDLWGRGTLVTVSS
VL: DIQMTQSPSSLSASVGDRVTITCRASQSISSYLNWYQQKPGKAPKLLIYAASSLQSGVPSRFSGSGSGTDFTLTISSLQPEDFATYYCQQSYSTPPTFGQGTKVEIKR
B19: bivalent LAG-3 IgG with MF7185 variable domains (antibody, V domains shown)
VH: B6 VH 1
VL: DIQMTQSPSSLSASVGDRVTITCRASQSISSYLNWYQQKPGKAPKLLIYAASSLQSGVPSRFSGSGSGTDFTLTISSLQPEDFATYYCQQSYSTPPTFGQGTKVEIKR
B20: bivalent LAG-3 IgG with MF7167 variable domains (antibody, V domains shown)
VH: EVQLVESGGGLVQPGGSLRLSCAASGFTFSSYAMNWVRQAPGKGLEWVSTISGSGVSTYYADSVKGRFTISRDNSKNTLYLQMNTLRAEDTAVYYCAKDRGYDYSGSYHNWFDPWGQGTLVTVSS
VL: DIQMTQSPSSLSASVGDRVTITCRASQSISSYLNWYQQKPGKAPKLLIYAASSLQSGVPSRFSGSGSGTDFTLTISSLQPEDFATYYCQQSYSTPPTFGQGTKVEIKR
B21: bivalent LAG-3 IgG with MF7111 variable domains (antibody, V domains shown)
VH: QVQLQESGPGLVKPSETLSLTCTVSDDSISDYYWSWIRQPPGKGLEWIGYIYYSGNTKYNPSLKNRVTISVDTSKSQFSLKLTSVTAADTAVYYCARIPLTGEFDYWAQGTLVTVSS
VL: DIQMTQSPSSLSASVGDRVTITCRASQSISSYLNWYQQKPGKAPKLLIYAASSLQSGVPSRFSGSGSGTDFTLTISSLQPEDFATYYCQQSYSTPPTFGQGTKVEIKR
B22: bivalent LAG-3 IgG with MF7096 variable domains (antibody, V domains shown)
VH: QVQLQESGPGLVRPSETLSLTCTVSGGSISSYSWSWIRQPPGKGLEWIGYIDYSGSTNYNPSLKSRVTISVDTSKTQFSLKLSSVSAADTAVYYCAKDLLYKWNYVEGFDIWGQGTTVTVSS
VL: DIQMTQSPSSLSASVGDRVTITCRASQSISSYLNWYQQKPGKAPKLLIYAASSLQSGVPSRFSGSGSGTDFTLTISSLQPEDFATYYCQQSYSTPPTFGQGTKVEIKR
B23: bivalent LAG-3 IgG with MF7097 variable domains (antibody, V domains shown)
VH: B22 VH with R13K, S56T, Y59F, T117M
VL: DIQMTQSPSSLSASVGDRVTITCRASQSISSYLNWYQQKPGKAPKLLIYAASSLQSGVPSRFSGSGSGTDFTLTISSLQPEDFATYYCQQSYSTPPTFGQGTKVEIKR

The binders below were run against T1, human LAG-3 (huLAG-3), full length, expressed on the cell surface (human, UniProt P18627 23-525) (assay: not given).
T1 sequence: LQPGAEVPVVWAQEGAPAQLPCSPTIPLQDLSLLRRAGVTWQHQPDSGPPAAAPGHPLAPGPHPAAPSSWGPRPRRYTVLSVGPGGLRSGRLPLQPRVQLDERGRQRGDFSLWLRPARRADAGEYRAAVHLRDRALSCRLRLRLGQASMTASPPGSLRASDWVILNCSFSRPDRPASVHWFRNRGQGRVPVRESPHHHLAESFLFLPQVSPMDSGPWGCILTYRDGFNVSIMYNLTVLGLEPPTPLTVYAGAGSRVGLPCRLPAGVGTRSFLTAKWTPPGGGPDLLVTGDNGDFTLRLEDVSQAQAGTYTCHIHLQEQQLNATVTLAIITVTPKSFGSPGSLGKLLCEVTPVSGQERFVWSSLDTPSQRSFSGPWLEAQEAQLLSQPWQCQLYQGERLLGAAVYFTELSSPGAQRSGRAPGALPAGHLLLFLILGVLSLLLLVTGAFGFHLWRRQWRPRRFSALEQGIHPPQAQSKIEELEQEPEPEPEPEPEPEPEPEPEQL

Binder | EC50 [µg/mL]
B1 | 11.2
B2 | 5.71
B3 | 10.2
B4 | 26.5
B5 | 1.68
B6 | 4.49
B7 | 4.2

The binders below were run against T1, human LAG-3 (huLAG-3), full length, … (assay: FACS on HEK293T cells with mouse/human LAG-3 hybrid constructs, bivalent IgG; bin = human domain bound).

Binder | binding result
B8 | binds
B9 | binds
B10 | binds

Biological target: T1, human LAG-3 (huLAG-3), full length, …
Assay: not given
Remark: another data set of the same source

Binder | EC50 (read off the curve) [µg/mL]
B11 | ~0.1

What follows are binders tested against T2, LAG-3 overexpressed on Jurkat/NFAT-RE reporter cells (Promega) (UniProt P18627 23-525) (assay: cell-based or functional assay).
T2 sequence (looked up): T1 sequence

Binder | LAG-3 blockade reporter assay (Jurkat LAG-3 reporter cells with Raji MHCII cells), activity as bivalent IgG, AUC
B12 | 34.3 % of control
B13 | 64.7 % of control
B14 | 57.1 % of control
B15 | 16.3 % of control
B16 | 39.8 % of control
B17 | 51.2 % of control
B18 | 2.04 % of control
B19 | 20.9 % of control
B20 | -1.33 % of control
B21 | 51.2 % of control
B22 | 35.7 % of control
B23 | 21.4 % of control

Biological target: T1, human LAG-3 (huLAG-3), full length, …
Assay: not given
Remark: another data set of the same source

Binder | EC50 (read off the curve) [µg/mL]
B14 | ~0.1
